Experimental data published in US20130251728A1 (Regeneron, published 2013).
Substitutions are numbered along the chain they refer to.

T1: hGCGR-mmh (human)
T1 construct: also called REGN547; monovalent hGCGR
T1 chain: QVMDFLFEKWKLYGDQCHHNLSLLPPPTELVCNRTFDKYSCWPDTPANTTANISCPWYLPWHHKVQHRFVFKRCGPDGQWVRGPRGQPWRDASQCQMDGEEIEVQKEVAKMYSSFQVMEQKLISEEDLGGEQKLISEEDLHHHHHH

T2: monkey (Macaca fascicularis) GCGR (full-length, on HEK293 reporter cells) (monkey (Macaca fascicularis), UniProt P47871 26-477 (human entry))
T2 chain: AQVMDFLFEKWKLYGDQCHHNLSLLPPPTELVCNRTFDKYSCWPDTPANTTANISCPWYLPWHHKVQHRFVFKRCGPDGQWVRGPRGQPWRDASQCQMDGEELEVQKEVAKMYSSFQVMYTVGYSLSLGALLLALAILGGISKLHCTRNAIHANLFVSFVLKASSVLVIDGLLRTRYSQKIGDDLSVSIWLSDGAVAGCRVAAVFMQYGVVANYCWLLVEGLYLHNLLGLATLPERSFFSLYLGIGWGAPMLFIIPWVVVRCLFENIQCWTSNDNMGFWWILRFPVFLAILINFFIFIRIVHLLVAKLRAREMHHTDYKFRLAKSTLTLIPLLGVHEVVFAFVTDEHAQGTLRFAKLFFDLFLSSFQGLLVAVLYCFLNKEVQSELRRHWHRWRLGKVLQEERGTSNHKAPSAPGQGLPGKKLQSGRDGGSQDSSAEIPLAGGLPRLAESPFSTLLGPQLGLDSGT

B1: H4H1327P (antibody, V domains shown)
VH: EVQLVESGGGLVQPGGSLRLSCAASGFTFSNYLMNWVRQAPGKGLEWLANIQEDGIEKYYVDSVKGRFTISRDNAKNSLYLQMNSLRAEDTAVYYCAREPSHYDILTGYDYYYGMDVWGQGTTVTVS
VL: DIQMTQSPSSLSASVGDRVTITCRASQGIRNDLGWYQQKPGKAPKRLIYAASSLQSGVPSRFSGSGSGTEFILTVSSLQPEDFATYYCLQYNSNPFTFGPGTKVDIK
notes: also called anti-GCGR (hIgG4) antibody designated H4H1327P
B2: H4H1328P (antibody, V domains shown)
VH: EVQLVESGGALVQPGGSLRLSCTASGFTFSNYDMHWVRQTTGKGLEWISAIDTAGDTYYPGSVKGRFTVSRENAKNSFYLQMNSLRAGDTAVYYCAREGKYYDILTGDYHYYGMDVWGQGTTVTVS
VL: B1 VL with A51T, I72T, V75I, Y91H, N94Y, F96L, P100G, V104L, D105E
notes: Fully human anti-GCGR antibody; the controls are called isotype-matched hIgG4
B3: H4H1331P (antibody, V domains shown)
VH: QVQLVESGGGVVQPGRSLRLSCAASGFTFSNFGMHWVRQAPGKGLEWVAVIWFDEIDKYYADSVKGRFTISRDNSKNTLYPQMNSLRAEDTAVYYCAREDYDILTGYYYAMDVWGQGTTVTVS
VL: DIQMTQSPSSLSASVGDRVTITCRASQGIKNDLGWYQQKPGKAPKRLIYAASRLQSGVPSRFSGSGSGTEFTLTISSLQPEDFGTYYCLQHNSHPTFGQGTKVEIK
notes: as for B2
B4: H4H1339P (antibody, V domains shown)
VH: EVQLVESGGGMVQPGGSLRLSCAASGFTSSNYDMHWVRQATGKGLEWVSSIDTAGDTYYPDSVKGRFIISRENAKNSLYLQMNSLRAGDTAVYYCTREPRNYEILTGHYHYHGMDIWGQGTTVTVS
VL: AIQMTQSPSSLSASVGDRVTITCRASQAIRNDLGWYQQKPGKAPKLLIYTAFSLQSGVPSRFSGSKSGTDFTLTISSLQPEDFATYYCLQDYTNPRTFGQGTKVEIK
notes: as for B2
B5: H4H1345N (antibody, V domains shown)
VH: QVQLVQSGADVKKPGASVKVSCKVSGHILTDLSMHWVRQPPGKGLEWMAGFDPEEGKIIYAQKFQGRVTMTEDTSTDTAYMELSSLRSGDTAVYYCATSDILTGYYRDYYGLDVWGQGTTLTVSS
VL: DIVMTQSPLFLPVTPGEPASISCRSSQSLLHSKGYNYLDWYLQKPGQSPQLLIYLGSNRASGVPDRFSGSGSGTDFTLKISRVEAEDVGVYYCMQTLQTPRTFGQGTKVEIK
notes: Anti-GCGR antibody from hybridoma; the controls are called isotype-matched hIgG4
B6: H4H1617N (antibody, V domains shown)
VH: B5 VH with P40A, A49G, K57E
VL: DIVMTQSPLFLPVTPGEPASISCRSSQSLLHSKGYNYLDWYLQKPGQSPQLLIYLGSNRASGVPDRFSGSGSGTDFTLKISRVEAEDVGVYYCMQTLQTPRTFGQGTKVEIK
notes: as for B5
B7: H4H1765N (antibody, V domains shown)
VH: EEQLVESGGDLVQPGGSLRLSCAASGFTLSSYEMNWVRQAPGKGLEWVSYISRGGSLIHYTDSVKGRFTISRDNAKNSLYLQMNSLRAEDTAVYYCVRDPAARYHYYYHGMDVWGQGTTVTVSS
VL: DIVMTQSPLSLPVTPGEPASISCRSSQSLLHNNGYNYLDWYLQKPGQSPQLLIYLGSSRASGVPDRFSGSGSGTDFILKISRVEAEDVGVYYCMQALQTPWTFGRGTKVEIK
notes: as for B5

molecular target: T3, mfGCGR-hFc (cynomolgus monkey (Macaca fascicularis)); assay: SPR Biacore T100, 37C, mAb captured, antigen flowed
T3 construct: also called mfGCGR-N-terminal hFc
Protocol: (§1) Measurements were conducted on a T100 Biacore instrument. Antibodies were captured onto the Biacore sensor chip surface via a covalently-linked anti-human kappa antibody capture surface, and the soluble GCGR proteins were applied to the surface either in a monovalent (hGCGR expressed with a myc-myc-hexa-histidine C-terminal tag) or bivalent (hGCGR and MfGCGR expressed with an N-terminal Fc fusion) format.
(§2) Binding dissociation equilibrium constants and dissociative half-lives were calculated from the kinetic rate constants as: KD=kd/kₐ; t_{1/2}=(In2/kd).

T3 sequence (chain, as listed by the source limits assumed): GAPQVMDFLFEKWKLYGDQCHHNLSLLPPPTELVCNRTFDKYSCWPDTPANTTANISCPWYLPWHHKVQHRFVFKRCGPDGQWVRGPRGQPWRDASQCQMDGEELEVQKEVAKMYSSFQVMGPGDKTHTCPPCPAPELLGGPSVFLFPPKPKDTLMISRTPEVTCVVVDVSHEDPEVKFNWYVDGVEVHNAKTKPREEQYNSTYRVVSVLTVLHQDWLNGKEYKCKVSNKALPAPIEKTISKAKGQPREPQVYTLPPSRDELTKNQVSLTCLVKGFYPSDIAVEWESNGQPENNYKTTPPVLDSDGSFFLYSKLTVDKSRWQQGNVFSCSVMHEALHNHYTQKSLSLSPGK

Row | Binder | Kd [nM] | T½ [h] | koff [s⁻¹] | kon [M⁻¹ s⁻¹]
1 | B1 | 0.0357 | 2.42 | 7.94e-05 | 2.22e+06
2 | B2 | 0.0353 | 2.68 | 7.17e-05 | 2.03e+06
3 | B3 | 0.0257 | 4.68 | 4.12e-05 | 1.6e+06
4 | B4 | 0.0631 | 1.8 | 0.000107 | 1.69e+06
5 | B5 | 0.101 | 1.52 | 0.000128 | 1.27e+06
6 | B6 | 0.0586 | 2.22 | 8.72e-05 | 1.49e+06
7 | B7 | 0.0164 | 13 | 1.48e-05 | 904000

molecular target: T4, hGCGR-hFc (human); assay: as above
T4 construct: also called REGN316
Protocol: as §1, §2

Row | Binder | Kd [nM] | T½ [h] | koff [s⁻¹] | kon [M⁻¹ s⁻¹]
8 | B1 | 0.157 | 0.833 | 0.000232 | 1.48e+06
9 | B2 | 0.124 | 1 | 0.000192 | 1.55e+06
10 | B3 | 0.0779 | 2.12 | 9.12e-05 | 1.17e+06
11 | B4 | 0.318 | 0.517 | 0.000371 | 1.17e+06
12 | B5 | 0.324 | 0.617 | 0.000309 | 952000
13 | B6 | 0.181 | 0.9 | 0.000214 | 1.18e+06
14 | B7 | 0.0537 | 5.4 | 3.57e-05 | 664000

Molecular target: T1, hGCGR-mmh
Assay: as above
Protocol: as §1, §2

Row | Binder | Kd [nM] | T½ [h] | koff [s⁻¹] | kon [M⁻¹ s⁻¹]
15 | B1 | 1.35 | 0.1 | 0.002 | 1.48e+06
16 | B2 | 6.67 | 0.0167 | 0.0108 | 1.61e+06
17 | B3 | 0.533 | 0.367 | 0.000519 | 973000
18 | B4 | 4.91 | 0.05 | 0.0043 | 876000
19 | B5 | 2.12 | 0.1 | 0.00197 | 928000
20 | B6 | 0.943 | 0.167 | 0.00113 | 1.2e+06
21 | B7 | 0.252 | 1.73 | 0.000111 | 441000

molecular target: T3, mfGCGR-hFc; assay: SPR Biacore T100, 25C, mAb captured, antigen flowed
Protocol: as §1, §2

Row | Binder | Kd [nM] | T½ [h] | koff [s⁻¹] | kon [M⁻¹ s⁻¹]
22 | B1 | 0.00902 | 13.4 | 1.44e-05 | 1.6e+06
23 | B2 | 0.0529 | 2.28 | 8.46e-05 | 1.6e+06
24 | B3 | 0.0069 | 23.7 | 8.12e-06 | 1.17e+06
25 | B4 | 0.0182 | 8.43 | 2.28e-05 | 1.26e+06
26 | B5 | 0.0254 | 7.95 | 2.42e-05 | 953000
27 | B6 | 0.011 | 13.9 | 1.38e-05 | 1.26e+06
28 | B7 | ≤ 0.00156 | 192 | ≤ 1e-06 | 643000

molecular target: T4, hGCGR-hFc; assay: as above
Protocol: as §1, §2

Row | Binder | Kd [nM] | T½ [h] | koff [s⁻¹] | kon [M⁻¹ s⁻¹]
29 | B1 | 0.0338 | 4.7 | 4.1e-05 | 1.21e+06
30 | B2 | 0.201 | 0.85 | 0.000226 | 1.13e+06
31 | B3 | 0.0202 | 12.5 | 1.54e-05 | 760000
32 | B4 | 0.0618 | 3.1 | 6.2e-05 | 1e+06
33 | B5 | 0.0724 | 3.37 | 5.72e-05 | 790000
34 | B6 | 0.0389 | 6.05 | 3.18e-05 | 818000
35 | B7 | 0.0122 | 38.9 | 4.95e-06 | 410000

Molecular target: T1, hGCGR-mmh
Assay: as above
Protocol: as §1, §2

Row | Binder | Kd [nM] | T½ [h] | koff [s⁻¹] | kon [M⁻¹ s⁻¹]
36 | B1 | 0.369 | 0.55 | 0.000352 | 952000
37 | B2 | 2.06 | 0.0833 | 0.00212 | 1.03e+06
38 | B3 | 0.17 | 1.73 | 0.000111 | 657000
39 | B4 | 0.825 | 0.367 | 0.000532 | 645000
40 | B5 | 0.431 | 0.567 | 0.000344 | 798000
41 | B6 | 0.187 | 0.967 | 0.000199 | 1.07e+06
42 | B7 | 0.093 | 6.32 | 3.05e-05 | 326000

Molecular target: T2, monkey (Macaca fascicularis) GCGR …
Assay: cell-based or functional assay

Row | Binder | IC50, inhibition of 100 pM GCG-stimulated luciferase activity, mfGCGR reporter cells [nM]
43 | B1 | 2.56
44 | B2 | 2.73
45 | B3 | 8.29
46 | B4 | 2.85
47 | B5 | 3.86
48 | B6 | 4.24
49 | B7 | 75.2

molecular target: mouse GCGR (full-length, on HEK293 reporter cells) (mouse, UniProt Q61606 27-485); assay: cell-based or functional assay
Sequence (Q61606 27-485 limits assumed): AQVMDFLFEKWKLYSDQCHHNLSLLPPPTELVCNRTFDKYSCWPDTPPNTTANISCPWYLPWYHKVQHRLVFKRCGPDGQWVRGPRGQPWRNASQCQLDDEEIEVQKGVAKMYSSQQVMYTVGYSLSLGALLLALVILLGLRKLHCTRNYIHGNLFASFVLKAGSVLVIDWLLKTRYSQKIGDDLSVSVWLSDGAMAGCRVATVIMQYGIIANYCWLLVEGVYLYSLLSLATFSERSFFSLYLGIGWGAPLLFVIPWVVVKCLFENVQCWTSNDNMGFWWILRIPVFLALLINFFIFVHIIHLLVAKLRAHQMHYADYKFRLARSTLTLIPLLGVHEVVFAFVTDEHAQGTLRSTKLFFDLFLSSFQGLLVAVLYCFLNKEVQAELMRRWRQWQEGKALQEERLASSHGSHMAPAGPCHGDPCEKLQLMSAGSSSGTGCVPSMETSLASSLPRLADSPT

Row | Binder | IC50, inhibition of 100 pM GCG-stimulated luciferase activity, mGCGR reporter cells [nM]
50 | B1 | 1.04
51 | B2 | 1.26
52 | B3 | 1.62
53 | B4 | 1.6

molecular target: human GCGR (full-length, on HEK293 reporter cells) (human, UniProt P47871 27-477); assay: cell-based or functional assay

Row | Binder | IC50, inhibition of 100 pM GCG-stimulated luciferase activity, hGCGR reporter cells [nM]
54 | B1 | 0.39
55 | B2 | 0.24
56 | B3 | 0.66
57 | B4 | 0.46
58 | B5 | 2.22
59 | B6 | 1.25
60 | B7 | 12.8

molecular target: rat GCGR (full-length, on transiently transfected HEK293 reporter cells) (rat, UniProt P30082 27-485); assay: cell-based or functional assay
Sequence (P30082 27-485 limits assumed): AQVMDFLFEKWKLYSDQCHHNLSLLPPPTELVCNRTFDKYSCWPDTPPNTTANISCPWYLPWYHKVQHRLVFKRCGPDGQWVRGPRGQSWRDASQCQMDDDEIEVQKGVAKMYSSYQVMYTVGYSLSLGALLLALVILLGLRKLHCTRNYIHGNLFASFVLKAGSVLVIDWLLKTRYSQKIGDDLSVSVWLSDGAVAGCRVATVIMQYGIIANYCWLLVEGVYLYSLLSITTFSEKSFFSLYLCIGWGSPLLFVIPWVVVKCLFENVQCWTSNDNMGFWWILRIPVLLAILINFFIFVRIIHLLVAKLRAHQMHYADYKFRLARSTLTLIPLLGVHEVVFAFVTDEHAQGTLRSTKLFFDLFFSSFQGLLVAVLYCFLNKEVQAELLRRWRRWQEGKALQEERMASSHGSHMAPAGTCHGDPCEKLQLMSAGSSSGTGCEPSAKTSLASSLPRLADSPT

Row | Binder | IC50, inhibition of 100 pM GCG-stimulated luciferase activity, rat GCGR reporter cells [nM]
61 | B1 | 0.88
62 | B2 | 0.93
63 | B3 | 3.87
64 | B4 | 0.97
65 | B5 | 8.07
66 | B6 | 3.66
